This data set deals with the molecule itself. Description: mass photometry; Refeyn OneMP; CHIP at 50 nM final in 20 mM HEPES pH 8.0, 200 mM NaCl; self-association of CHIP (dimer, tetramer, hexamer, octamer, high MW).

As a reminder, the stoichiometry N is the number of molecules, sites or subunits per partner or assembly.

B1: CHIP R225*, recombinant (natural protein, human, UniProt Q9UNE7-1 1-303, looked up)
chain: MKGKEEKEGGARLGAGGGSPEKSPSAQELKEQGNRLFVGRKYPEAAACYGRAITRNPLVAVYYTNRALCYLKMQQHEQALADCRRALELDGQSVKAHFFLGQCQLEMESYDEAIANLQRAYSLAKEQRLNFGDDIPSALRIAKKKRWNSIEERRIHQESELHSYLSRLIAAERERELEECQRNHEGDEDDSHVRAQQACIEAKHDKYMADMDELFSQVDEKRKK
As for B1, the “stoichiometry N” value was determined as 2.

B2: CHIP P228S, recombinant, C-terminal His tag (natural protein, human, UniProt Q9UNE7-1 1-303, looked up)
chain: MKGKEEKEGGARLGAGGGSPEKSPSAQELKEQGNRLFVGRKYPEAAACYGRAITRNPLVAVYYTNRALCYLKMQQHEQALADCRRALELDGQSVKAHFFLGQCQLEMESYDEAIANLQRAYSLAKEQRLNFGDDIPSALRIAKKKRWNSIEERRIHQESELHSYLSRLIAAERERELEECQRNHEGDEDDSHVRAQQACIEAKHDKYMADMDELFSQVDEKRKKRDISDYLCGKISFELMREPCITPSGITYDRKDIEEHLQRVGHFDPVTRSPLTQEQLIPNLAMKEVIDAFISENGWVEDY
notes: CHIP (STUB1), SCA48-associated U-box mutation P228S
For B2, the binding result is “binds”.

The values are drawn from paper doi:10.1101/2025.11.26.690709, “Domain-specific decoupling of co-chaperone and ligase functions in STUB1 underlies biochemical and clinical heterogeneity in SCA48” (bioRxiv, 2025).
